Data taken from the supplement of paper PMC10065799, “High-throughput profiling of sequence recognition by tyrosine kinases and SH2 domains using bacterial peptide display” (eLife, 2023).

How the values were obtained:
c-Src SH2 = assay: SH2 binding enrichment of the phosphorylated peptide, bacterial display (enrichment ratio); higher = better substrate or ligand; peptides without Tyr show the background
SHP2-C SH2 = assay: as above
Grb2 SH2 = Grb2 SH2 (UniProt P62993); assay: as above
AncSZ = assay: phosphorylation enrichment, bacterial display (enrichment ratio); higher = better substrate or ligand; peptides without Tyr show the background
FGFR3 = FGFR3 (UniProt P22607); assay: as above
Fes = Fes (UniProt P07332); assay: as above
EPHB1 = EPHB1 (UniProt P54762); assay: as above
FGFR1 = FGFR1 (UniProt P11362); assay: as above
Fyn = Fyn (UniProt P06241); assay: as above
MERTK = MERTK (UniProt Q12866); assay: as above
Jak2 = Jak2 (UniProt O60674); assay: as above
c-Src = assay: as above
Hck = Hck (UniProt P08631); assay: as above
EPHB2 = EPHB2 (UniProt P29323); assay: as above
c-Abl (mouse) = assay: as above
Fer (mouse) = assay: as above
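Throughout, for SH2 binding enrichment of the phosphorylated peptide, bacterial display: peptide library displayed on the E. coli surface as eCPX fusions, selected cells deep-sequenced, score is each peptide's frequency after selection divided by its frequency in the input.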
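Throughout, for phosphorylation enrichment, bacterial display: 11-residue human phosphosite peptides and single-mutation variants displayed on the E. coli surface, counted by deep sequencing, each peptide's frequency after selection divided by its frequency in the unselected input library; frequency after pTyr selection over input frequency; kinase dosed for 20-30% of maximal phosphorylation in three min.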

MERTK, sequence (Q12866 whole entry, looked up): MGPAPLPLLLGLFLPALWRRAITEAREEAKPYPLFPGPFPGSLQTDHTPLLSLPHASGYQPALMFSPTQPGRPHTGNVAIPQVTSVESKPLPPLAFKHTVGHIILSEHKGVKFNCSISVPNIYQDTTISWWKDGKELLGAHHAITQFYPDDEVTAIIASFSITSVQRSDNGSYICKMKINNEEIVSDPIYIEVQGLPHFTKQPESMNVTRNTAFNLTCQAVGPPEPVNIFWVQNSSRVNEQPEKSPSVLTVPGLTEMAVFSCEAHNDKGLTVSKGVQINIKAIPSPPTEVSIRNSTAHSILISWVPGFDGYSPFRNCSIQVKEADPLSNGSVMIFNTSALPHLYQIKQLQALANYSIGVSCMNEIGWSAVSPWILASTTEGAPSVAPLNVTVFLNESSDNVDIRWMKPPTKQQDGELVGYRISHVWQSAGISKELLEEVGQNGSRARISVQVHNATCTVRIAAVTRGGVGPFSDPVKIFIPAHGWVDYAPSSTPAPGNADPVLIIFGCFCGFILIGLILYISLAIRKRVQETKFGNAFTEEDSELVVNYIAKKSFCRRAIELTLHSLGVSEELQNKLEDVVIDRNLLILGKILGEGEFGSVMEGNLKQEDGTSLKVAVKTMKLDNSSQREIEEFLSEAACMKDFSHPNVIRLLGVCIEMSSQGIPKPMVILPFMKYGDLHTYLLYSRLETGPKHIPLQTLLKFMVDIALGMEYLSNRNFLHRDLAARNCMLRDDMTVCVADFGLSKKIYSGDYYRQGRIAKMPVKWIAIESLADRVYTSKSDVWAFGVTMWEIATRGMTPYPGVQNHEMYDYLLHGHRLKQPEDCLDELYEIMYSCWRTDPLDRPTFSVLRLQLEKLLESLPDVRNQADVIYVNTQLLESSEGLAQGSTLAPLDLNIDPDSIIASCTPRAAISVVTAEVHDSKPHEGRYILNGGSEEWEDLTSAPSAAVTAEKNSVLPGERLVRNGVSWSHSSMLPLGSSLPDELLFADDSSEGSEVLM
Jak2, sequence (O60674 whole entry, looked up): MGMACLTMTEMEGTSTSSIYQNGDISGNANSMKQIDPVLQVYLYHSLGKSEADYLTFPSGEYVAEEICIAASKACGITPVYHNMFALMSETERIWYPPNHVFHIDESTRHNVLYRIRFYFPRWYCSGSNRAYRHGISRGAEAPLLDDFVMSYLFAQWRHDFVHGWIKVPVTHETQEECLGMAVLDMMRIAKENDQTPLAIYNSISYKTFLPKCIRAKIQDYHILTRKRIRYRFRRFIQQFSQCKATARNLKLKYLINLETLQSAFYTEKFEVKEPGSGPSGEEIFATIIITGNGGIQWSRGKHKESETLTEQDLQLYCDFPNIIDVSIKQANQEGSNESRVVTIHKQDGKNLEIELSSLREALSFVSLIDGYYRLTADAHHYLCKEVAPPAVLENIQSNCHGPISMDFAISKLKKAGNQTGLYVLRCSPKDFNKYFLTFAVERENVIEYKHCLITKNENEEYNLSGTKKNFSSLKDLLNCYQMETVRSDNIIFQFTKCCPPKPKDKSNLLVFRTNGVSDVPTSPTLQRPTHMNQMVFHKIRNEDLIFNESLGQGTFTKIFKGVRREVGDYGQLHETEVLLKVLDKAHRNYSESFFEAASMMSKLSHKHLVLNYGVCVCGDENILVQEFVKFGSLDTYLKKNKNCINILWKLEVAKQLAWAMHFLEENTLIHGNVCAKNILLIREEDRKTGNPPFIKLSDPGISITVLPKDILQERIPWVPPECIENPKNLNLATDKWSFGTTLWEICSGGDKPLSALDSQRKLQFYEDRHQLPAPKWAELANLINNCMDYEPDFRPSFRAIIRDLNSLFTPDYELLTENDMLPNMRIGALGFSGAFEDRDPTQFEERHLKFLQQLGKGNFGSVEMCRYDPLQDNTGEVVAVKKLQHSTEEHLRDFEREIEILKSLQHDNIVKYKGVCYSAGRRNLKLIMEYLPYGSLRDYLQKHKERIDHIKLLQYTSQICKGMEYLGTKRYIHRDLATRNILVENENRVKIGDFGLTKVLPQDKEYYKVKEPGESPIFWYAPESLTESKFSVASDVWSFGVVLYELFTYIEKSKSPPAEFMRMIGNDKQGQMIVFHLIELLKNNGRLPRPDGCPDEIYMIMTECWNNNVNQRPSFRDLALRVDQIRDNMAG
Fyn, sequence (P06241 whole entry, looked up): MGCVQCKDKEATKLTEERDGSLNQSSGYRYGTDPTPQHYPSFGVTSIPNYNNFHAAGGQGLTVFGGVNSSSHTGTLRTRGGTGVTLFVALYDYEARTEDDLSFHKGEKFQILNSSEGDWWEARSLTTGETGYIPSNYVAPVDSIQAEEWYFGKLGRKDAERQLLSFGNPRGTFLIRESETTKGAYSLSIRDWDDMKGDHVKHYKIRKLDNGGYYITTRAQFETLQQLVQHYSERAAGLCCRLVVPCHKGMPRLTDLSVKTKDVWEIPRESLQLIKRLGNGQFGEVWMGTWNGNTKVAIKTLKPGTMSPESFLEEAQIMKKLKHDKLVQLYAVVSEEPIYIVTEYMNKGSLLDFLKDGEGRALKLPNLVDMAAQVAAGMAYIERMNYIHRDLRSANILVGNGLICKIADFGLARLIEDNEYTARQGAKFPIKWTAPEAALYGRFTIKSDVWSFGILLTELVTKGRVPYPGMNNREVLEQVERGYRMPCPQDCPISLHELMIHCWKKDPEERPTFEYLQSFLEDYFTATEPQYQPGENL
EPHB1, sequence (P54762 whole entry, looked up): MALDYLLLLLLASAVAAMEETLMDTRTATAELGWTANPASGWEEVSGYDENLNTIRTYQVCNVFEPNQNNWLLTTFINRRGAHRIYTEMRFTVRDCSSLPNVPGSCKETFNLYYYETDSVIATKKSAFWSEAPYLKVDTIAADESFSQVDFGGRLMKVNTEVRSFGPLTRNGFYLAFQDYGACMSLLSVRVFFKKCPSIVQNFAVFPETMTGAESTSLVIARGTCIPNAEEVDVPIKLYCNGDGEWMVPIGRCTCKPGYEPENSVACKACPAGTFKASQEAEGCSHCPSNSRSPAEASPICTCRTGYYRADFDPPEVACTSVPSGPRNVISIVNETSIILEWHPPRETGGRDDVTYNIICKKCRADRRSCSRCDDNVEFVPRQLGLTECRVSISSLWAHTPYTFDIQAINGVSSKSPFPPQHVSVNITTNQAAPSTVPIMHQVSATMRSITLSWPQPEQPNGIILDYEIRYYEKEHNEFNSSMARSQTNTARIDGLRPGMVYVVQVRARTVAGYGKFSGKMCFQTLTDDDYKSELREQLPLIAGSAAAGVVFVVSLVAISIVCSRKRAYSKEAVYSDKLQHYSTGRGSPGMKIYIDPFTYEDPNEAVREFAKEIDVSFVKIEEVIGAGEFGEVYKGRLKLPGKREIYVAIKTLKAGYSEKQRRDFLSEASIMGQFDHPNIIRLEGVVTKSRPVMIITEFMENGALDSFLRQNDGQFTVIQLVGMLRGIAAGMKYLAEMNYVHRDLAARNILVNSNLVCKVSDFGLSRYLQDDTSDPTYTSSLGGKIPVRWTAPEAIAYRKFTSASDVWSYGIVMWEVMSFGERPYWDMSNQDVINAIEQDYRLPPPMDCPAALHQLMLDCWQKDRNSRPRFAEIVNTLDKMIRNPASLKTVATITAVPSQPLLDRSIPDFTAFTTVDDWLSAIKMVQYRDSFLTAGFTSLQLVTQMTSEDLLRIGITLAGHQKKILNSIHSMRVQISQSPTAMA
FGFR1, sequence (P11362 whole entry, looked up): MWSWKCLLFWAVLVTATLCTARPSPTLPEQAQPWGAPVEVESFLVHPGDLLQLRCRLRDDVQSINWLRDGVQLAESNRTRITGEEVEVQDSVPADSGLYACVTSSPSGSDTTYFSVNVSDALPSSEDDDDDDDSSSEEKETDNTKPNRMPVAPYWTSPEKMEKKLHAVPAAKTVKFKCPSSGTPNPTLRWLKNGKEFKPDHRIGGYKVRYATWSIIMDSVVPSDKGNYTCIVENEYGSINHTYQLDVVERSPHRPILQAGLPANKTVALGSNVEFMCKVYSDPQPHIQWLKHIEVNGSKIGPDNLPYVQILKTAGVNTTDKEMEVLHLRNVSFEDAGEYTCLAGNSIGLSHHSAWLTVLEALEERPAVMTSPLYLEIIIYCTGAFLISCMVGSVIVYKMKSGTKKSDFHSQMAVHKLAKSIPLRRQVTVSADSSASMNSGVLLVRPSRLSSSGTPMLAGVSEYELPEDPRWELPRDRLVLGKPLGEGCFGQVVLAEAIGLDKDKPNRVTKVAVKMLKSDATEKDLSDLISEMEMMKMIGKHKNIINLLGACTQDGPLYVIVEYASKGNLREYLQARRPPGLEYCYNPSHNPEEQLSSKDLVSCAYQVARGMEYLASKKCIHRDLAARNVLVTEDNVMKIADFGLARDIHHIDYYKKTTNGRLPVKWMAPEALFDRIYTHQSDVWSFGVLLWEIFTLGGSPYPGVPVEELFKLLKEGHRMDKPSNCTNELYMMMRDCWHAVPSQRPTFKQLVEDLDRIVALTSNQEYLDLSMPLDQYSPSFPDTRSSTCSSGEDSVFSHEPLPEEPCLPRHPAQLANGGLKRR
Hck, sequence (P08631 whole entry, looked up): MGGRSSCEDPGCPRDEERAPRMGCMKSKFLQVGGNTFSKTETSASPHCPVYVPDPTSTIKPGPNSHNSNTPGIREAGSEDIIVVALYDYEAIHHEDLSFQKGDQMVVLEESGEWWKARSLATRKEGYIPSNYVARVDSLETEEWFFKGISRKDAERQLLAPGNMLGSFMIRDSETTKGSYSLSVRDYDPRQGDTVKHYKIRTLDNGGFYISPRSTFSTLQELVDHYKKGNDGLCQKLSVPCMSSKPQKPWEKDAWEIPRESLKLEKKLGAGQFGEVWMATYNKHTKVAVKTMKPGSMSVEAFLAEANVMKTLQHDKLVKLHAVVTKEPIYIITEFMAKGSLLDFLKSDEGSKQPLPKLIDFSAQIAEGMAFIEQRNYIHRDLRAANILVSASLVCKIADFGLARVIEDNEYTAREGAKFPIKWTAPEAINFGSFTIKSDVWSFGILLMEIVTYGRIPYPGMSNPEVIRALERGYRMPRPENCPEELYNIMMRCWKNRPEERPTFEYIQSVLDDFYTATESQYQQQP

SH2 binding enrichment (c-Src SH2)	SH2 binding enrichment (SHP2-C SH2)	SH2 binding enrichment (Grb2 SH2)	Sequence	phosphorylation enrichment (AncSZ)	phosphorylation enrichment (FGFR3)	phosphorylation enrichment (Fes)	phosphorylation enrichment (EPHB1)	phosphorylation enrichment (FGFR1)	phosphorylation enrichment (Fyn)	phosphorylation enrichment (MERTK)	phosphorylation enrichment (Jak2)	phosphorylation enrichment (c-Src)	phosphorylation enrichment (Hck)	phosphorylation enrichment (EPHB2)	phosphorylation enrichment (c-Abl (mouse))	phosphorylation enrichment (Fer (mouse))
0.557	0.753	0.762	FKEDPYLVVNP [MCM6_Y810_E806K_YF]	1.19	0.89	1.12	0.441	1.02	1.06	0.449	1.13	1.98	0.718	0.617	0.815	0.531
0.52	0.884	0.842	DVFLKHLNFAT [PDE6B_Y212_Y212H]	0.785	0.66	0.914	0.547	0.483	0.507	0.466	0.799	0.374	0.478	0.545	0.552	0.414
0.64	0.692	0.799	MSSHHYDYKKY [ZNF445_Y428]	0.503	0.46	0.513	0.394	0.338	0.415	0.339	0.441	0.383	0.421	0.375	0.438	0.408
9.68	14	0.871	EELLRYAIVTP [POC5_Y37_H36R]	0.928	0.615	0.922	0.669	0.514	0.456	3.32	0.867	0.444	0.439	0.637	0.62	0.6
0.412	0.676	0.756	ALIKAYVKAVA [SMN1_Y43_D44V]	0.966	0.639	0.995	0.65	0.623	0.462	0.481	1.12	0.557	0.464	0.534	0.68	0.445
0.579	0.531	0.707	DFPGIYSGFDD [POLR1C_Y33_N32I_YF]	1.31	0.768	1.3	0.692	0.531	9.82	0.814	1.1	7.13	6.28	0.585	0.806	0.782
0.506	0.558	0.841	ENRKFYMDLKE [PURA_Y156_YF]	0.917	0.738	0.989	0.492	0.503	0.408	0.432	0.963	0.375	0.469	0.691	0.557	0.487
0.572	0.77	1.04	VFFDLYGGEKF [PTPN11_Y66_D61V_YF]	1.03	0.598	1.11	0.803	0.443	1.42	0.517	0.835	2.04	2.08	0.596	0.914	0.509
0.452	0.612	0.815	GESKDYALHVG [SVIL_Y185]	0.606	0.532	0.798	1.92	0.469	0.463	0.468	0.461	0.416	0.461	0.721	0.502	0.436
0.588	0.823	0.837	DLTQDSEEWKR [ORC6_Y232_Y232S]	1.02	0.661	1.09	0.616	0.495	0.463	0.489	1.07	0.476	0.614	0.576	0.676	0.456
0.385	0.65	0.659	SVTCTNSPALN [TP53_Y126_Y126N]	0.907	0.699	1.24	0.586	0.491	0.495	0.487	1.08	0.504	0.447	0.483	0.762	0.588

The remaining lines, values behind:

Sequence	SH2 binding enrichment (c-Src SH2)	SH2 binding enrichment (SHP2-C SH2)	SH2 binding enrichment (Grb2 SH2)	phosphorylation enrichment (AncSZ)	phosphorylation enrichment (FGFR3)	phosphorylation enrichment (Fes)	phosphorylation enrichment (EPHB1)	phosphorylation enrichment (FGFR1)	phosphorylation enrichment (Fyn)	phosphorylation enrichment (MERTK)	phosphorylation enrichment (Jak2)	phosphorylation enrichment (c-Src)	phosphorylation enrichment (Hck)	phosphorylation enrichment (EPHB2)	phosphorylation enrichment (c-Abl (mouse))	phosphorylation enrichment (Fer (mouse))
GEDEPYAEPFA [APBA1_Y183_S184A_YF]	0.636	0.652	1.08	1.43	0.872	1.21	0.584	0.607	0.462	0.547	1.47	0.649	0.593	0.571	0.814	0.569
TEYIQYVRRKN [MAX_Y73_M74V]	0.463	0.64	0.834	0.712	0.488	0.573	0.465	0.528	0.615	0.647	0.548	0.657	0.589	0.425	0.875	0.454
RQQQDYWLMDV [ANPEP_Y600_I603M]	0.634	0.815	0.896	1.8	13.1	1.01	7.32	18	0.537	3.29	1.26	0.509	0.487	3.72	0.587	1.03
QDEHGYISRCF [HSPB1_Y133]	0.445	0.763	0.662	1.23	0.792	1.19	0.718	0.555	0.741	0.396	0.965	0.418	0.838	0.923	0.861	0.601
KNEVLYDGENH [ARFGEF1_Y314]	0.665	0.687	0.978	0.943	0.475	0.836	0.403	0.399	0.422	0.398	0.763	0.418	0.436	0.525	0.668	0.401
ELPQTYCVSGP [DYSF_Y1684_G1679E]	0.47	0.881	0.838	0.791	0.594	0.816	0.533	0.417	0.469	0.447	0.826	0.641	0.435	0.532	0.633	0.515
RGDTVYTVNCM [KBTBD13_Y404_R408C]	0.475	0.793	0.752	0.937	0.686	1.08	0.692	0.479	3.11	0.734	0.844	2.45	1.21	0.636	0.697	0.547
HEEKVYLSRGD [CRACR2A_Y141]	0.366	0.495	0.812	0.884	1.17	1.05	0.541	0.672	0.995	0.611	0.784	1.08	0.885	0.526	0.826	0.569
LTVVIYVLIGR [EPHA3_Y561]	0.918	1.36	1.64	1.39	1.26	2.13	1.05	0.691	0.567	0.697	0.844	0.643	0.839	1.77	1.9	1.83
RKQQLYTAMEE [CCDC39_Y593]	3.25	0.576	1.29	0.933	0.757	0.963	0.707	0.431	0.529	2.02	0.836	0.583	0.855	0.534	0.677	0.672
PEVCDYGLGGG [GSTO1_Y239_A236V]	0.562	1.16	1.05	1.6	0.803	1.07	0.575	0.689	0.965	0.837	1.03	0.611	0.765	0.812	0.726	0.807
RWGQKYMTAVV [CYBA_Y72]	0.948	0.698	1.57	0.731	0.884	0.665	0.494	0.654	0.488	0.452	0.409	0.312	0.609	0.783	0.328	0.568
EACPSYSHVVL [CHST6_Y168_R166P]	1.52	1.75	1	0.7	0.51	0.702	0.492	0.538	0.411	0.486	0.527	0.507	0.463	0.521	0.54	6
LERYIYNREEF [HLA-DPB1_Y59]	0.634	0.698	0.956	1.05	1.18	1.24	0.756	0.564	1.26	0.629	0.874	2.63	1.56	1.22	0.757	0.587
FKIFLYTLNDN [FN1_Y1975_YF]	0.428	0.588	0.741	1.3	0.717	1.35	0.624	0.523	0.584	0.366	1.06	0.43	0.494	0.791	0.877	0.548
TKFVAYIESQG [KDM4B_Y34_N29T_YF]	0.6	0.703	0.736	0.974	0.685	1.02	0.499	0.51	0.497	0.307	1.12	0.396	0.578	0.56	0.64	0.403
PLYRKYWPNHI [GREB1L_Y1560]	0.822	1.24	1.09	1.48	1.07	1.34	0.813	1.15	1.07	0.708	0.95	0.882	1.11	0.645	1.05	0.84
QLPRGYISILV [BAG3_Y205_P209L]	0.6	0.682	1.04	1.11	0.748	1.38	0.583	0.589	0.563	0.611	1.07	0.479	0.675	0.848	0.806	0.663
RLCQDYDTIGP [ANK1_Y1073]	1.61	0.814	1.35	1.88	0.976	1.44	2.96	0.541	0.838	0.602	0.778	0.971	1.61	3.94	0.964	1.05
PLLEYYWDIFT [CDAN1_Y713_R714W]	0.959	1.25	1.25	2.64	7.06	2.27	2.64	8.76	1.32	1.02	2.65	1.19	0.79	1.28	1.61	0.906
KNSFKYFMSDD [ATRX_Y203_C200S_YF]	0.556	0.587	0.942	0.856	0.638	1.02	0.475	0.416	0.392	0.418	0.869	0.425	0.478	0.55	0.628	0.412
VDASYYGGRGV [ANTXR2_Y381]	0.471	0.638	0.738	0.702	0.647	0.665	0.708	0.772	0.786	0.775	0.804	0.999	1.92	0.386	0.698	0.46
